According to the nanobody polyreactivity screen of Harvey et al. (2022):

Assay: yeast display, Sf9 membrane polyspecificity reagent, FACS + sequencing; frameworks hold sequencing errors
Summary of the method: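 Synthetic nanobody libraries on Saccharomyces cerevisiae BJ5465 were galactose-induced for 36–48 hours, stained 1 hour at 4 °C with 10% biotinylated, detergent-solubilized Sf9 membrane reagent and enriched on streptavidin microbeads. FACS then separated cells into low and high (top ~1%) gates by anti-HA (expression) and streptavidin (reagent binding) fluorescence. Genes were colony-PCR amplified, MiSeq 2 × 250 sequenced and CDR-length filtered. A clone's polyreactivity label is that of its gate of origin.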

| Sequence | polyreactivity (PSR sort gate) |
| --- | --- |
| QVQLVESGRGLVQAGGSLRLSCAASGIIFGSYAMGWYRQAPGKEMELVAAISRGTSTYYADSVKGRFTISRDNAKITVYLQMNSLNPEDTAVYYCAATRQEYGPHSRFVYVNYYYWGQGTQVTVSS | low polyreactivity |
| QVQLVESGGGLVQAGGSLRLSCAASGRTFSSNAMGWYRQAPGKERELVASISFRGGRTYYADSVKGRFTISRDNAKNTVYLQMNSLKPVDTAVYYCATAYYYFSPSRADGEYWGQGTQVTVSS | high polyreactivity |
| QVQLVESGGGLVQAGGSLRLSCAPSGNTFFLNAMGWYRQAPGKERELVAAITSSGGSTYYADSVKGRFTISRDNAKNTVYLQMNSLKPEDTAVYYCGTDRSYPPRSLNRRGPYEYWGQGTQVTVSS | low polyreactivity |
| QVQLVESGGGLVQAGGSLRLSCAASGSTFQLYAMGWYRQAPGKERELVAAISGIGDSTYYADSVKGRFTISRDNAKYTVYLQMNSLKPEDTAVYYCAREFCDGLSGKFDYWGQGTQVNVSS | low polyreactivity |
| QDQLVESGGGLVQAGGSLRLSCAASGSIFAYYVMGWYRQAPGKERELVAAISKSGGSTYYADSVQGRFTISRDNAKNTVYVQRNSLKPEDPAVYYCAAPQRYPRFYYWGQGTQVTVSS | high polyreactivity |
| QVQLVESGGGLVQAGGSLRLSCAASGNTSAVYAMGWYRQAPGKERELVASITWSDGITYYADSVKGRFTISRDNAKNTVYLQMNSLKPEDTAVYYCAKSTLYSVEYDYWGEGTQVTVSS | low polyreactivity |
| QVQLVESGGGLVQAGGSLRLSCAASGTFYYYAMGWYRQAPGKERELVAAISNGDSTTYADSVKGRFTISRDNAKNTVYFQMNSLKPEDTAVYYCAAYRYTPRTSRGYYYWGQGTQVTVSS | low polyreactivity |
| QVQLVESGGGLVQAGGRLRLSCAASGRTFRRYAMGWYRPAPGTERELVAAISWSGGSTYYADSVKGRFTISRDNAKNSVYLQMNSLKPEDTAVYYCGAETRYGYGYWGQGTQVTVSS | high polyreactivity |
| QVQLVESGGGLVQAGGSLRLSCAASGRTFTVYAMGWYRQAPGKEREFVASISKSGGRTYYADSVKGRFTISRDNAKNTVYLQMNSLKPEDTAVYYCAKVETYLQIAYRRGYDSWGQGTQVTVSS | low polyreactivity |
| QVQLVESGGGLVQAGGSLRLSCAASGRTFKWNAMGWYRPAPGKERELVAAISISAGSTYYADSVKGRFTISRDNAKKTVYLQMNSLKPEDTAVYYCNTKYVRFYSRMDSWGQGTQVTVSS | low polyreactivity |
| QVQLVESGGGLVQAGGSLRLSCAASGYIFNKYVMGWYRQAPGKERELVAAISASGGSTYYADSVKGRFTISRDNAKNTVYLQMNSLKPEDTSVYYCAATLYRRMDYWGQGTQVTVSS | high polyreactivity |
| QVQLQESGGGLVQAGGSLRLSCAASGYISFSGYIGRYRQAPGKEREFVDSITPGRSTYYADSVKGRFTISRDNAENTVYLQMNSLKPEDTAVYYCAADDSRTEQHAYWGQGTQVTVSS | high polyreactivity |
| QVQLVESGGGLVQAGGSLRLSCAASGGTFYTNVMGWYRQAPGKERELVAAITRSGGSTHYADSVKGRFTISRDNAKNTVYLQMNSLKPEDTAVYYCAKDRVGEMYYWGQGTQVTVSS | low polyreactivity |
| QVQLVESGGGLVQAGGSLRLSCAASGSTFPRNAMGWYRQAPGKERELVAGISRGSSTNYADSVKGRFTISRDNAKNTVYLQMNSLKPEDTAVYYCAAALSVTARLDYWGQGTQVTVSS | low polyreactivity |
| QLQLVESGGGLVQAGGSLRLSCAASGLIQANYAMGWYRQAPGKERELVAAISSSGGSTYSADSVKGRFSISRDNAKNTVYLQMKSLKPEDTAVYYCAAYPLYRRRWTGDYWGQGTQVTVSS | high polyreactivity |
| QVQLVESGGGLVQAGGSLRLSCAASGRTLYHNAMGWYRQAPGKERELVAAISYRGTRTYYADSVKGRFTISRDKAKNTVYLQKNSLTPEDTAVYYCAADTTYATKSDYWGQGTQVTVSS | high polyreactivity |
| QVQLVESGGGLVQAGGSLRLSCAASGNIFSTYAMGWDRQAPGKERELVAAISSRGTSTYYADSVKGRFTISRDNAKNTVYLQMNSLKPEDTAVYYCNAVIALQLDYWGQGTQVTVSS | high polyreactivity |
| QVQLVESGGGLVQAGGSLRLSSAASGSIFQYYTMGWYRQAPGKERELVASISSDGSTYYADSVKGRFTISRDNAKNTVYLQMNSLKPEDTAVYYCADVLWEPPVHPGYDYWGQGTQVTVSS | low polyreactivity |
| QVQLVESGGGLVQARGSLRLSCAASGRTFGNYAMGWYRQSPGKERELVASINTGGSTSYADSVKGRFTISRDNAKNTVYFLMNSLKPEDTAVYYCARSFFWYRLHVYWGQGTQVTVSS | low polyreactivity |
| QVQLVESAGGLVQEGGSLRIRCAASGRIYQLYTMGGYRQAPGKERELDAAITTGTSTSYAYSVKGRFTISRDNAKNTVYLLMYSLKPVDTAFYFCNKGSVSYYSVFVPYESDYGGQGTQVTVSS | low polyreactivity |
| QVQLVESGPGLVQAGGSLRLSCAASGRIFTANAMGWYRQAPGKERELVAAITTSDGTYYADSVKGRFTISRDNAKNTVYLQMYSLKPEVTAVYYCATDTATYPPAMDDWGQGTQVTVSS | low polyreactivity |
